Measured values taken from US20150344570A1 (published 2015).

Key:
[1] = biological target: FcγRIIIa F (human, UniProt P08637 17-208); assay: SPR (Biacore), KD
[2] = biological target: FcγRIIIa V (human, UniProt P08637 17-208); assay: SPR (Biacore), KD
Sequence of FcγRIIIa V (P08637 17-208): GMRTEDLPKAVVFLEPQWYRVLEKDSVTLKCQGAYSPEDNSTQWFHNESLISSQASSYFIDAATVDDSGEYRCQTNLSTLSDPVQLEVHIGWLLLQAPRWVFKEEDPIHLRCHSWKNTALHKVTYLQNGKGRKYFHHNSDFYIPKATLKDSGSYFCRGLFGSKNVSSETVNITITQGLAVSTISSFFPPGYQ

Sequence of FcγRIIIa F (P08637 17-208): as above

| fold binding against the variant before introduction of I332E and Y235N [1] [times] | fold binding against the variant before introduction of I332E and Y235N [2] [times] | Binder |
| --- | --- | --- |
| 2 | 8 | H240-Kn192/H240-Hl204/L73-k0 (antibody, human IgG1, kappa, Y235N and E294K in H240-Kn120; G236T and I332E in H240-Hl068; also called H240-Kn192/H240-HI204/L73-k0) heavy 1: QDQLVQSGAEVKKPGASVKVSCKASGFNIKDTYIQWVRQAPGQGLEWMGRIDPLRKQTKYREKFEGRVTITADTSTNTAYMELSSLRSEDTAVYYCVRSGREFDYWGQGTLVTVSSASTKGPSVFPLAPSSKSTSGGTAALGCLVKDYFPEPVTVSWNSGALTSGVHTFPAVLQSSGLYSLSSVVTVPSSSLGTQTYICNVNHKPSNTKVDKKVEPKSCDKTHTCPPCPAPEYNWGPMVFLFPPKPKDTLMISRTPEVTCVVVDVSDEDPEVKFNWYVDGVEVHNAKTKPREKQYNATYRVVSVLTVLHQDWLNGKEYKCKVSNKDLPAPIEKTISKAKGQPREPQVCTLPPSRDELTKNQVSLWCLVKGFYPSDIAVEWESNGQPENNYKTTPPVLDSDGSFFLYSKLTVDKSRWQQGNVFSCSVMHEALHNHYTQKSLSLSP heavy 2: QDQLVQSGAEVKKPGASVKVSCKASGFNIKDTYIQWVRQAPGQGLEWMGRIDPLRKQTKYREKFEGRVTITADTSTNTAYMELSSLRSEDTAVYYCVRSGREFDYWGQGTLVTVSSASTKGPSVFPLAPSSKSTSGGTAALGCLVKDYFPEPVTVSWNSGALTSGVHTFPAVLQSSGLYSLSSVVTVPSSSLGTQTYICNVNHKPSNTKVDKKVEPKSCDKTHTCPPCPAPELLTGPSVFLFPPKPKDTLMISRTPEVTCVVVDVSHEEPEVKFNWYVDGVEVHNAKTKPREEQYNSTYRVVSVLTVLHQDWLNGKEYKCKVSNDALPKPEEETISKAKGQPREPQVYTLPPSRCELTKNQVSLSCAVKGFYPSDIAVEWESNGQPENNYKTTPPVLDSDGSFFLVSKLTVDKSRWQQGNVFSCSVMHEALHNHYTQKSLSLSP light: DIQMTQSPSSLSASVGDRVTITCRASQDIHKYIAWYQQKPGQAPRLLIQYTSTLQPGVPSRFSGSGSGTDYTFTISSLQPEDIATYYCLQYEQLRTFGGGTKVEIKRTVAAPSVFIFPPSDEQLKSGTASVVCLLNNFYPREAKVQWKVDNALQSGNSQESVTEQDSKDSTYSLSSTLTLSKADYEKHKVYACEVTHQGLSSPVTKSFNRGEC |
| 2 | 8 | H240-Kn193/H240-Hl204/L73-k0 (antibody, human IgG1, kappa, Y235N and E294R in H240-Kn120; G236T and I332E in H240-Hl068; also called H240-Kn193/H240-HI204/L73-k0) heavy 1: QDQLVQSGAEVKKPGASVKVSCKASGFNIKDTYIQWVRQAPGQGLEWMGRIDPLRKQTKYREKFEGRVTITADTSTNTAYMELSSLRSEDTAVYYCVRSGREFDYWGQGTLVTVSSASTKGPSVFPLAPSSKSTSGGTAALGCLVKDYFPEPVTVSWNSGALTSGVHTFPAVLQSSGLYSLSSVVTVPSSSLGTQTYICNVNHKPSNTKVDKKVEPKSCDKTHTCPPCPAPEYNWGPMVFLFPPKPKDTLMISRTPEVTCVVVDVSDEDPEVKFNWYVDGVEVHNAKTKPRERQYNATYRVVSVLTVLHQDWLNGKEYKCKVSNKDLPAPIEKTISKAKGQPREPQVCTLPPSRDELTKNQVSLWCLVKGFYPSDIAVEWESNGQPENNYKTTPPVLDSDGSFFLYSKLTVDKSRWQQGNVFSCSVMHEALHNHYTQKSLSLSP heavy 2: QDQLVQSGAEVKKPGASVKVSCKASGFNIKDTYIQWVRQAPGQGLEWMGRIDPLRKQTKYREKFEGRVTITADTSTNTAYMELSSLRSEDTAVYYCVRSGREFDYWGQGTLVTVSSASTKGPSVFPLAPSSKSTSGGTAALGCLVKDYFPEPVTVSWNSGALTSGVHTFPAVLQSSGLYSLSSVVTVPSSSLGTQTYICNVNHKPSNTKVDKKVEPKSCDKTHTCPPCPAPELLTGPSVFLFPPKPKDTLMISRTPEVTCVVVDVSHEEPEVKFNWYVDGVEVHNAKTKPREEQYNSTYRVVSVLTVLHQDWLNGKEYKCKVSNDALPKPEEETISKAKGQPREPQVYTLPPSRCELTKNQVSLSCAVKGFYPSDIAVEWESNGQPENNYKTTPPVLDSDGSFFLVSKLTVDKSRWQQGNVFSCSVMHEALHNHYTQKSLSLSP light: DIQMTQSPSSLSASVGDRVTITCRASQDIHKYIAWYQQKPGQAPRLLIQYTSTLQPGVPSRFSGSGSGTDYTFTISSLQPEDIATYYCLQYEQLRTFGGGTKVEIKRTVAAPSVFIFPPSDEQLKSGTASVVCLLNNFYPREAKVQWKVDNALQSGNSQESVTEQDSKDSTYSLSSTLTLSKADYEKHKVYACEVTHQGLSSPVTKSFNRGEC |
